Laboratory results taken from patent publication US20260258141A1 (BIOCYTOGEN PHARMACEUTICALS BEIJING, published 2026).

What was measured:
[1] = molecular target: T1, human IGF1R (insulin-like growth factor 1 receptor) on cells (human, UniProt P08069 31-1367); assay: cell-based or functional assay
[2] = molecular target: T1, human IGF1R (insulin-like growth factor …); assay: cell-based or functional assay; remark: listed apart in the source
[3] = molecular target: T2, His-tagged human IGF1R protein (ACRO Biosystems Inc., Cat #: IGR-H5229) (human, UniProt P08069 31-932); assay: SPR (Biacore 8K) on captured hIGF1R-His, binder injected second (Analyte 2); competitor injected first (Analyte 1): Teprotumumab analog
T2 construct: Bought protein; also called hIGF1R-His; not shown: His tag
T2 sequence (P08069 31-932): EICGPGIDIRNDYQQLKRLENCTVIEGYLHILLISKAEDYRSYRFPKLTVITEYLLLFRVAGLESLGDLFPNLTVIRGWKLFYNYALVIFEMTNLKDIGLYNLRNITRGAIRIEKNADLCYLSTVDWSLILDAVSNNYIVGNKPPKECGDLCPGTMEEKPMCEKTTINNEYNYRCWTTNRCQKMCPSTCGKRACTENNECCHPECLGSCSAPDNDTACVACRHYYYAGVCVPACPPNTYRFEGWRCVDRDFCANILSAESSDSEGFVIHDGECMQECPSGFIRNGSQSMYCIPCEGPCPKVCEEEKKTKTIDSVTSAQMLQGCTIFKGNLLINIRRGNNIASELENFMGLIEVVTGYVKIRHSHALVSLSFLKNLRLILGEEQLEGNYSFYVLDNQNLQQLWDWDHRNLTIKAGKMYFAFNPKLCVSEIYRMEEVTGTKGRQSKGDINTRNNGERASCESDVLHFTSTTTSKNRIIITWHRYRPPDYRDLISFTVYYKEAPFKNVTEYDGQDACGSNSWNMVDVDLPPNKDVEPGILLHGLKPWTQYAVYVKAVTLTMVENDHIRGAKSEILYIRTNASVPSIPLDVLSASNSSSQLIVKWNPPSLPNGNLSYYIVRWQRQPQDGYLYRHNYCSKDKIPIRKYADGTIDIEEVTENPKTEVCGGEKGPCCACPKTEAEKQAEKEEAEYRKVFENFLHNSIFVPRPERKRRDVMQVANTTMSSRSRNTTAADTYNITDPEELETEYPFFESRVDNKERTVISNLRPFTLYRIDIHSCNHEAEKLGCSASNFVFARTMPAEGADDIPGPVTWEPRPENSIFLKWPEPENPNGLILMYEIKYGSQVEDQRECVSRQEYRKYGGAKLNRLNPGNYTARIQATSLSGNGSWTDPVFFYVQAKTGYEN
Experimental: (§1) Epitope binding assays were performed using Biacore™ 8K biosensor to determine whether two anti-IGF1R antibodies target the same or overlapping epitopes. 1×HBS-EP+ buffer (10 mM 4-(2-hydroxyethyl)-1-piperazineethanesulfonic acid (HEPES), 150 mM NaCl, 3 mM ethylenediaminetetraacetic acid (EDTA) and 0.05% P20, pH7.4) diluted from HBS-EP+buffer (10×) was used as the running buffer throughout the experiment. About 50 RU of hIGF1R-His was captured at a flow rate of 10 μL/min, and 200 nM of the tested antibody (Analyte 1) was injected at a flow rate of 30 uL/min to bind the ligand. Another comparison antibody (Analyte 2) was injected under the same conditions to determine whether the binding of different antibodies interfered with each other. The binding time was 180 s for each antibody.
(§2) The binding value of each antibody was obtained using Biacore Insight Evaluation (Version: 2.0.15.12933). To quantify the interference of one antibody binding to another, a binding ratio was calculated to compare each pair of antibodies. The binding ratio is defined as the binding value of the second antibody (Analyte 2) divided by the binding value of the first antibody (Analyte 1). The threshold to determine the block or non-block is 0.3.

[4] = molecular target: T2, His-tagged human IGF1R protein (ACRO …); assay: blocking ELISA on coated hIGF1R-His; blocked ligand: biotinylated human IGF-II
Experimental: (§3) Blocking assays were performed to determine whether the anti-IGF1R antibodies can block the binding between IGF1R and its ligand IGF-1 and IGF-2. Specifically, the microwell plates were coated with 100 μl/well of 5 μg/mL hIGF1R-His in pH 9.6 carbonate buffer, overnight at 4° C. Plates were blocked with at 200 μl/well of 1% bovine serum albumin and incubated at 37° C. for 2 hours. Serially diluted anti-IGF1R antibodies (0.005-10 μg/mL in 3-fold serial dilution plus buffer blank) were added to the plates at 100 μL/well. After a 1.5-hour incubation, Biotinylated Human IGF-I Protein (Acro Biosystems, Cat #: IG1-H82F7) or Biotinylated Human IGF-I Protein was replaced with Biotinylated Human IGF-II Protein (Acro Biosystems, Cat #: IG2-H82Q6) were added to the plates at 100 μL/well. After a 1.5-hour incubation at 37° C., HRP Streptavidin (Biolegend, Cat #: 405210) at 1:3000 dilution was added to the plates at 100 μL/well and incubated for 1 hour. Plates were washed 5 times and 100 μL of TMB was added to each well, and incubated for 10 minutes. 100 uL of 1M Phosphoric Acid was then added to each well and ELISA plates were read at 450/570 nm wavelength. A fitting curve was obtained using Log (antibody concentration (M)) as the X-axis and […] as the Y-axis.

[5] = molecular target: His-tagged cynomolgus monkey IGF1R protein (ACRO Biosystems Inc., Cat #: IGR-C5225) (cynomolgus monkey); assay: SPR (Biacore 8K), antibody captured on Protein A chip, antigen as analyte, 1:1 model
[6] = molecular target: T1, human IGF1R (insulin-like growth factor …); assay: cell-based or functional assay; remark: listed apart in the source
[7] = molecular target: T1, human IGF1R (insulin-like growth factor …); assay: flow cytometry on CHO-S-hIGF1R cells, antibody 20 µg/mL
Experimental: (§4) INSR (insulin receptor) and IGF1R are both members of the superfamily of receptor tyrosine kinases (RTKs). The binding activity of anti-IGF1R antibodies to human IGF1R, human INSR and monkey IGF1R was verified by flow cytometry. Briefly, CHO-S-hIGF1R cells (expressing human IGF1R (SEQ ID NO: 45), CHO-S-fasIGF1R cells (expressing cynomolgus monkey IGF1R (SEQ ID NO: 46) and CHO-S-hINSR (expressing SEQ ID NO: 47) were plated in a 96-well plate at a density of 2×10⁵ cells/well respectively. Purified anti-IGF1R antibody with a concentration of 20 μg/mL was added to each well and was incubated at 4° C. for 30 minutes. Then, after one wash with PBS, the cells were incubated with the secondary antibody Alexa Fluor® 647 anti-human IgG Fcγ (Jackson ImmunoResearch Laboratories, Inc., Cat #: 109-606-170) at 4° C. for 15 minutes before flow cytometry analysis. Human IgG1 was used as ISO control.

[8] = molecular target: T3, human insulin receptor INSR on cells (human, UniProt P06213 28-1382); assay: flow cytometry on CHO-S-hINSR cells, antibody 20 µg/mL
T3 construct: Expressed on CHO-S cells; also called hINSR; CHO-S-hINSR cells
T3 sequence (P06213 other isoform, or with tags, fused parts or gaps limits assumed): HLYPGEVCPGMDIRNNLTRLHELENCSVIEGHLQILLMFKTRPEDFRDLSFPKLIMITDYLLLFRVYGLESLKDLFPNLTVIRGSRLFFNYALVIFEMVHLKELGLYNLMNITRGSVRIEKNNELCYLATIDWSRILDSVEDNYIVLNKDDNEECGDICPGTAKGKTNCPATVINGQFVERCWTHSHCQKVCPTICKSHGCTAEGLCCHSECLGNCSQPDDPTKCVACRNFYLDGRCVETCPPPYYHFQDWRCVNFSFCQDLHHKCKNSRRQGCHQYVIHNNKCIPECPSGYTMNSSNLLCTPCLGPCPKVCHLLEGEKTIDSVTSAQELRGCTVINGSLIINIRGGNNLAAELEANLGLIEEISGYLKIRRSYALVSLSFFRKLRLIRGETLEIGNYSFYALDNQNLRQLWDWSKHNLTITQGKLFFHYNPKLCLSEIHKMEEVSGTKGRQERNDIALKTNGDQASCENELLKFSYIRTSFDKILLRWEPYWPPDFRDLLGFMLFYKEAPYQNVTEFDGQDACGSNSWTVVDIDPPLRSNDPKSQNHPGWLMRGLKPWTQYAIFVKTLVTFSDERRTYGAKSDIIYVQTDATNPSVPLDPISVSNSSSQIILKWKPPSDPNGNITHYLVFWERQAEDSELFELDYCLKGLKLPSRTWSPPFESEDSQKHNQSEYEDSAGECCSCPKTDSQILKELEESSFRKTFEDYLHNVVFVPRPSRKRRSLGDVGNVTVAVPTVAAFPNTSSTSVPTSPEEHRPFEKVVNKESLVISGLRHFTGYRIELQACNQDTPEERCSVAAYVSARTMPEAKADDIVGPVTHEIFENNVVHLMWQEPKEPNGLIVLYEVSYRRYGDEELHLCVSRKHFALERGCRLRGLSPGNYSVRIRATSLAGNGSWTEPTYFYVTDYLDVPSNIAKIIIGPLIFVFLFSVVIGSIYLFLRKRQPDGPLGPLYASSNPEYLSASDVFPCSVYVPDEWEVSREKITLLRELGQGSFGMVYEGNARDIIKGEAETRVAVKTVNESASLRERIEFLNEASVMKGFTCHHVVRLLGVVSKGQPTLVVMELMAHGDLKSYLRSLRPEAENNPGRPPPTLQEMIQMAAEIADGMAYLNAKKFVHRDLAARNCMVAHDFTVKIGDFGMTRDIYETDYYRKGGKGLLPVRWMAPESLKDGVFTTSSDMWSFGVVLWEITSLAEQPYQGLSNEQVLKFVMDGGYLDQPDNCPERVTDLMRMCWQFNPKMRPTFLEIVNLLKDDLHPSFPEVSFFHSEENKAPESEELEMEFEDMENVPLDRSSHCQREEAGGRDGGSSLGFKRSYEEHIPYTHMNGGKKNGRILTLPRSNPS
Experimental: as §4

[9] = molecular target: T2, His-tagged human IGF1R protein (ACRO …); assay: blocking ELISA on coated hIGF1R-His; blocked ligand: biotinylated human IGF-I
Experimental: as §3

[10] = molecular target: T2, His-tagged human IGF1R protein (ACRO …); assay: SPR (Biacore 8K) on captured hIGF1R-His, binder injected second (Analyte 2); competitor injected first (Analyte 1): 12D1
Experimental: as §1, §2

[11] = molecular target: T2, His-tagged human IGF1R protein (ACRO …); assay: SPR (Biacore 8K) on captured hIGF1R-His, binder injected second (Analyte 2); competitor injected first (Analyte 1): 10G1
Experimental: as §1, §2

T1 sequence (P08069 31-1367 limits assumed): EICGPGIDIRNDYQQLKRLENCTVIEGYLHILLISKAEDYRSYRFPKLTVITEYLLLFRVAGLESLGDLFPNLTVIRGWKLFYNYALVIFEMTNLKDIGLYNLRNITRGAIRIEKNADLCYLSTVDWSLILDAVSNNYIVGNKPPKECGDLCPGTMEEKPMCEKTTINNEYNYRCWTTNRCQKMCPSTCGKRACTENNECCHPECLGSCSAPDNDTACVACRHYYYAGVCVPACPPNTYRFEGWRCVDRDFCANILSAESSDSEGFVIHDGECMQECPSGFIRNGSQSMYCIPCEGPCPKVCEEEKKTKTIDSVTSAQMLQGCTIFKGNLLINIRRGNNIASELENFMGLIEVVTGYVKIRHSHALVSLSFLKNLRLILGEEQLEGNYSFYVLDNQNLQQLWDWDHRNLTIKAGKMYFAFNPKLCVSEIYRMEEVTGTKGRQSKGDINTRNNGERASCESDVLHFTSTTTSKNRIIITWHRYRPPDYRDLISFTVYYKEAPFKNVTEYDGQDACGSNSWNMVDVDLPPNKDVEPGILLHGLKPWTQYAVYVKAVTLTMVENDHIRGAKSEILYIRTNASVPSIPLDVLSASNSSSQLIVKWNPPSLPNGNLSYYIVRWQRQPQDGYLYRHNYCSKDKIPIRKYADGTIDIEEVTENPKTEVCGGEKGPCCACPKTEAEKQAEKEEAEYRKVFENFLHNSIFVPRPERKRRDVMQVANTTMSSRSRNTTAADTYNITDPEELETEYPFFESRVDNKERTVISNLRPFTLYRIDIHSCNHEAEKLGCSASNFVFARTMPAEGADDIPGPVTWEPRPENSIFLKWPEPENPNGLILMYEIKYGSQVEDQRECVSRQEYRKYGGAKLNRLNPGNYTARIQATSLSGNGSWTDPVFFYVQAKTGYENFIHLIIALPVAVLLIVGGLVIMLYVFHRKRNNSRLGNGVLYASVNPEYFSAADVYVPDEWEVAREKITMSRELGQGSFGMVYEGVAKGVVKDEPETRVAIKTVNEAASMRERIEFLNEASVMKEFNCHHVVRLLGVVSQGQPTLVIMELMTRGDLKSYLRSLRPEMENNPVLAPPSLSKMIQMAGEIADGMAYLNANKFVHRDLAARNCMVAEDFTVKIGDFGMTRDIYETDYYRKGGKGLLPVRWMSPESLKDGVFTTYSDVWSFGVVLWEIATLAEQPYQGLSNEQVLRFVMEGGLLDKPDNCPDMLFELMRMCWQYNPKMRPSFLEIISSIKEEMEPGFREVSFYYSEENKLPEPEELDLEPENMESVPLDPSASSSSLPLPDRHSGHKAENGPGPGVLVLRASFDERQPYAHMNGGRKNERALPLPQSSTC

Row | Binder | IC50 of inhibition of IGF1R phosphorylation (CHO-S-hIGF1R cells, IGF-1 added, phosphotyrosine IGF1R ELISA) [1] | EC50 of internalization (MFI of pHAb-labelled secondary Fab, NCI-H838 cells) [2] | binding ratio (Analyte 2 / Analyte 1) [3] | IC50 [4] | Max inhibition (%) (10 µg/mL) [4] | Kd [5] | koff [5] | kon [5] | IC50 of inhibition of IGF-1-induced proliferation (NCI-H838 cells) [6] | Max inhibition (%) (10 µg/mL) of IGF-1-induced proliferation (NCI-H838 cells) [6] | Percentage of positive cells [7] | Percentage of positive cells [8] | IC50 [9] | Max inhibition (%) (10 µg/mL) [9] | binding ratio (Analyte 2 / Analyte 1) [10] | binding ratio (Analyte 2 / Analyte 1) [11]
1 | anti-IGF1R antibody 12A4 (antibody, V domains shown) VH: EVQLVQSGGGEIRPGGSLRLSCAASGFTFADYGMSWVRQAPGEGLEWVSEIDWTGGSKLYADSVKGRFTISRDNAKNSLFLQMNSLRAEDTALYYCVRDRGAVSPKYYYYGMDVWGQGTTVTVSS VL: EIVLTQSPSSLSASVGDRVTITCRASQGIRNDLGWYQQKPGKAPKRLIYAASRLQSGVPSRFSGSGSGTDFTLTISSLQPEDFATYYCLQHNSYPYTFGQGTKLEIK | 0.9 nM | 0.92 nM | 0.01 | 1.9 nM | 81% | 0.568 nM | 1.05e-05 s⁻¹ | 18400 M⁻¹ s⁻¹ | 0.045 nM | 105% | 50.3% | 0.4% | 2 nM | 50% | -0.02 | -0.01
2 | anti-IGF1R antibody 12D1 (antibody, human IgG1, V domains shown) VH: QVQLVESGGGVVRPGGSLRLSCAASGFTFDDYGMSWVRQVPGKGLEWVSGINWNGGSTDYADSVKGRFTISREKAKNSLYLQMNSLRAEDTALYYCVRDRGAVTRRYYYYGMDVWGQGTTVTVSS VL: DIQMTQSPSSLSASVGDRVTITCRASQDIRNDLGWYQLKPGKAPKRLIYAASRLQSGVPSRFSGSGSGTEFTLTISSLQPEDFATYYCLQHNSYPYTFGQGTKLEIK | 1.3 nM | 0.66 nM | 0.01 | 1.6 nM | 88% | 2.79 nM | 1.8e-05 s⁻¹ | 6450 M⁻¹ s⁻¹ | 0.064 nM | 145% | 39.3% | 0.5% | 2.2 nM | 55% | -0.01 | 0
3 | anti-IGF1R antibody 10D1 (antibody, human IgG1, V domains shown) VH: QVQLQQSGGGVVRPGGSLRLSCAASGFTFADYGMSWVRQVPGKGLEWVSGINWNGGSTDYADSVKGRFTISRDNAKHSLYLQMNSLRAEDTAFYYCARDRGAVSRRYYYYGMDVWGLGTTVTVSS VL: AIQLTQSPSSLSASVGDRVTITCRASQDIRNDLGWYQLKPGKAPKRLIYAASRLQSGVPSGFSGSGSGTEFTLTISSLQPEDFATYYCLQHNSYPYTFGQGTKLEIK | 1.4 nM | 0.51 nM | 0.03 | 1.7 nM | 76% | 2.1 nM | 1.75e-05 s⁻¹ | 8360 M⁻¹ s⁻¹ | 0.14 nM | 117% | 36.5% | 1.5% | 1.3 nM | 47% | 0.02 | 0.02
4 | anti-IGF1R antibody 10G1 (antibody, human IgG1, V domains shown) VH: QVQLVESGGGLVKPGGSLRLSCAASEFTFSDYYMSWIRQSPGKGLEWVSYISNSGSFTNYADSVKGRFTISRDNAKNSLYLQMNSLRAEDSAIYYCVRDQAPVTSKYYYYGMDVWGQGTTVTVSS VL: EIVLTQSPSSLSASVGDRVTITCRASQGIRNDFAWYQQKPGKAPKRLIYAASRLQRGVPSRFSGSGSGTEFTLTISSLQPEDFATYYCLQHNSYPYTFGQGTKLEIK | 1.2 nM | 1.12 nM | -0.03 | 5.2 nM | 73% | 8.57 nM | 0.000237 s⁻¹ | 27600 M⁻¹ s⁻¹ | 0.091 nM | 88% | 46.4% | 0.7% | 1.6 nM | 43% | -0.02 | -0.01
